According to US6801029B2, “Microwave dielectric spectroscopy method and apparatus” (Wisconsin Alumni Research Foundation, priority 2001, dated 2004):

Assays:
[1] = Thermal unfolding of RNase A by microwave dielectric spectroscopy (slot antenna s11 log mag, Lorentzian peak positions fitted to 2-state model); format: physicochemical
Excerpt: A coaxial-fed slot antenna 25 was manufactured from RO-4002 (Rogers Corporation, Rogers, Conn.) on a LPKF ProtoMat using BoardMaster 3.0 (LPKF Laser & Electronics AG, Germany). The coaxial feed was composed of semi-rigid PE-047SR (Pasternack Enterprises, Irvine, Calif.). The dimensions of the antenna were chosen to yield a resonant frequency of approximately 3 GHz. This frequency was selected to optimize the interaction of microwave radiation with “bound water,” assumed to undergo dispersion at lower frequencies than bulk solution. The active range of the antenna extends from approximately 500 MHz to 6.5 GHz. The antenna was attached to a 0.5 cm Suprasil fused quartz UV/VIS cuvette 21 (Hellma GmbH & Co., Germany).
Microwave measurements were made utilizing as the analyzer 37 a Hewlett-Packard 8720D vector network analyzer (VNA) (Agilent Technologies, Palo Alto, Calif.) set to measure s11. The lowest power range −15 to +5 dBm was used for all experiments. The slot antenna 25 was attached to the VNA 37 using a standard 50 Ω coaxial cable 35. UV/VIS absorption measurements were performed using a Hewlett-Packard 8452A diode-array spectrophotometer with a water-thermostatted cell holder (Agilent Technologies, Palo Alto, Calif.), functioning as the optical spectrometer 28 with detector 32. Both instruments were controlled using LabView (National Instruments Corporation, Austin, Tex.) via a GPIB connection.
Data analysis was performed in one of two ways: 1) Center frequency was determined by fitting spectra at each change of temperature or other environmental conditions to a number of Lorentzian peaks; or 2) Peak amplitude was determined for spectra at each change of temperature or other environmental condition. Commercial software such as Microcal Origin was used for both types of fitting. Data, either center frequency or amplitude, could be then plotted as a function of environmental condition and subjected to further analysis. For thermal unfolding experiments, peak center frequency determination yielded better results, perhaps because many peaks overlap. Peak amplitude determination was more successful for hormone binding experiments, probably because peaks were well-spaced and non-overlapping.
(§1) Bovine pancreatic ribonuclease A (RNase A) was purchased from Sigma (St. Louis, Mo.) and used without further purification. All other reagents were purchased from Fisher Scientific (Pittsburgh, Pa.). Lyophilized protein was dissolved in a solution of 30 mM sodium acetate/acetic acid, 100 mM sodium chloride, pH 4.5, then dialyzed exhaustively before use. Protein concentrations were determined by UV-VIS spectroscopy. The extinction coefficient was taken as 0.72 mg^−1mL cm^−1 at 278 nm. Concentrations of RNase A varied from 0.2 to 1 mg/mL (14.6 to 73.0 μM). The environmental condition of the sample that was changed was temperature. RNase A was unfolded reversibly by increasing the temperature of the sample at a maximum rate of 0.4° C./min. The unfolding reaction was monitored using UV/VIS absorbance at 288 nm.
As with buffer alone, peak positions shift with temperature, and most peaks broaden with increasing temperature.
Spectra were fitted to eight Lorentzian peaks. […] Four peaks, identified in Table 1 below, responded in a sigmoidal fashion characteristic of cooperative unfolding; the remaining peaks increased or decreased monotonically with temperature.

[2] = Thermal unfolding of RNase A monitored by UV/VIS absorbance at 288 nm, two-state model; format: physicochemical
Protocol: as §1
The unfolding of RNase A may be observed using UV/VIS absorbance. At low protein concentrations, the absorbance of RNase A follows Beer's Law:
where A(λ) is the absorbance, ε(λ,T) is the extinction coefficient, c is the protein concentration, and l is the path length. For selected proteins, the extinction coefficient ε depends not only on the wavelength λ and the temperature T, but also on the protein conformation. Such a dependence of ε on conformation is called a hyperchromic shift. For RNase A, the maximal hyperchromic shift occurs at approximately 288 nm.
Here, N refers to native protein, U refers to unfolded protein, Tm is the midpoint temperature (at which FN=FU=0.5 and ΔG=0 kcal/mol), ΔHm is the enthalpy at the midpoint temperature, α is the observed signal (in this case, UV/VIS absorbance), and αN and αU are the observed signals for native and unfolded protein, respectively. Since the unfolding of RNase A is a unimolecular reaction, thermodynamic parameters such as enthalpy, free energy, and mid-point temperature are independent of concentration. […] Analysis of unfolding of RNase A yields an average Tm of 58.2° C. and an average ΔHm of 74.9 kcal/mol.
Other researchers have implied that the presence of microwave radiation destabilizes protein, and may enhance rates of folding and unfolding. […] The differences in Tm and ΔHm are within experimental error and are not thought to be significant.

[3] = Lorentzian peak 1 (1.5 GHz at 30° C.)
[4] = Lorentzian peak 4 (3.1 GHz at 30° C.)
[5] = Lorentzian peak 5 (3.5 GHz at 30° C.)
[6] = Lorentzian peak 7 (4.4 GHz at 30° C.)
[7] = simultaneous UV/VIS and microwave measurements

B1: Bovine pancreatic ribonuclease A (protein, UniProt P61823 27-150, looked up)
Ribonuclease pancreatic: KETAAAKFERQHMDSSTSAASSSNYCNQMMKSRNLTKDRCKPVNTFVHESLADVQAVCSQKNVACKNGQTNCYQSYSTMSITDCRETGSSKYPNCAYKTTQANKHIIVACEGNPYVPVHFDASV
notes: Bovine pancreatic ribonuclease A purchased from Sigma, used without further purification
Tm [1, 3]: 50.4 °C
ΔHm [1, 3]: 66.0 kcal/mol
Tm [1, 4]: 58.3 °C
ΔHm [1, 4]: 161.4 kcal/mol
Tm [1, 5]: 53.3 °C
ΔHm [1, 5]: 72.1 kcal/mol
Tm [1, 6]: 60.9 °C
ΔHm [1, 6]: 76.8 kcal/mol
Tm ([1]; fit to all peaks (1, 4, 5, 7)): 55.21 °C
ΔHm ([1]; fit to all peaks (1, 4, 5, 7)): 54.2 kcal/mol
Tm ([2]; UV/VIS alone): 58.09 °C
ΔHm ([2]; UV/VIS alone): 76.8 kcal/mol
average Tm (midpoint temperature of unfolding) ([2]; average, UV/VIS absorbance 288 nm, 30 mM sodium acetate/acetic acid, 100 mM NaCl, pH 4.5): 58.2 °C
average ΔHm (enthalpy at midpoint temperature) ([2]; average, UV/VIS absorbance 288 nm, pH 4.5 buffer): 74.9 kcal/mol
Tm [2, 7]: 58.91 °C
ΔHm [2, 7]: 65.1 kcal/mol
